Test results reported in PMC3734082.

Target: clathrin triskelia (clathrin heavy chain, CHC) purified from rat liver (UniProt P11442)
Test: GST pull-down, CHC
Conditions: sites S558

binding against the reference (reference: wild type treated with Aurora A)	binding against the reference (reference: wild-type CID treated with Aurora A)	Substance
weaker		TACC3 (from UniProt Q9Y6A5) S558A treated with Aurora A
	weaker	TACC3 clathrin interaction domain (CID), 522-577 (from UniProt Q9Y6A5) S558A CID treated with Aurora A
